Assay results published in article PMC7961048 (2021).
Read-outs that look alike come from different tables or passages of the source. Non-standard residues stand in square brackets, D forms with d. No end group written: not given here. *: point of attachment. Biotin = O=C1N[C@H]2[C@H](CS[C@H]2CCCCC(=O)*)N1; pT = C[C@@H](OP(=O)(O)O)[C@H](N)C(=O)O; ttds = NCCCOCCOCCOCCCNC(=O)CCC(=O)*

B2: full-length human 14-3-3τ fused to the C terminus of MBP (natural protein)
chain: MEKTELIQKAKLAEQAERYDDMATCMKAVTEQGAELSNEERNLLSVAYKNVVGGRRSAWRVISSIEQKTDTSDKKLQLIKDYREKVESELRSICTTVLELLDKYLIANATNPESKVFYLKMKGDYFRYLAEVACGDDRKQTIDNSQGAYQEAFDISKKEMQPTHPIRLGLALNFSVFYYEILNNPELACTLAKTAFDEAIAELDTLNEDSYKDSTLIMQLLRDNLTLWTSDSAGEECDAAEGAEN
B3: full-length human 14-3-3η fused to the C terminus of MBP (natural protein)
chain: MGDREQLLQRARLAEQAERYDDMASAMKAVTELNEPLSNEDRNLLSVAYKNVVGARRSSWRVISSIEQKTMADGNEKKLEKVKAYREKIEKELETVCNDVLSLLDKFLIKNCNDFQYESKVFYLKMKGDYYRYLAEVASGEKKNSVVEASEAAYKEAFEISKEQMQPTHPIRLGLALNFSVFYYEIQNAPEQACLLAKQAFDDAIAELDTLNEDSYKDSTLIMQLLRDNLTLWTSDQQDEEAGEGN
B4: full-length human 14-3-3ε fused to the C terminus of MBP (natural protein)
chain: MDDREDLVYQAKLAEQAERYDEMVESMKKVAGMDVELTVEERNLLSVAYKNVIGARRASWRIISSIEQKEENKGGEDKLKMIREYRQMVETELKLICCDILDVLDKHLIPAANTGESKVFYYKMKGDYHRYLAEFATGNDRKEAAENSLVAYKAASDIAMTELPPTHPIRLGLALNFSVFYYEILNSPDRACRLAKAAFDDAIAELDTLSEESYKDSTLIMQLLRDNLTLWTSDMQGDGEEQNKEALQDVEDENQ
B6: full-length human 14-3-3σ fused to the C terminus of MBP (natural protein)
chain: MERASLIQKAKLAEQAERYEDMAAFMKGAVEKGEELSCEERNLLSVAYKNVVGGQRAAWRVLSSIEQKSNEEGSEEKGPEVREYREKVETELQGVCDTVLGLLDSHLIKEAGDAESRVFYLKMKGDYYRYLAEVATGDDKKRIIDSARSAYQEAMDISKKEMPPTNPIRLGLALNFSVFHYEIANSPEEAISLAKTTFDEAMADLHTLSEDSYKDSTLIMQLLRDNLTLWTADNAGEEGGEAPQEPQS
B8: full-length human 14-3-3β fused to the C terminus of MBP (natural protein)
chain: MTMDKSELVQKAKLAEQAERYDDMAAAMKAVTEQGHELSNEERNLLSVAYKNVVGARRSSWRVISSIEQKTERNEKKQQMGKEYREKIEAELQDICNDVLELLDKYLIPNATQPESKVFYLKMKGDYFRYLSEVASGDNKQTTVSNSQQAYQEAFEISKKEMQPTHPIRLGLALNFSVFYYEILNSPEKACSLAKTAFDEAIAELDTLNEESYKDSTLIMQLLRDNLTLWTSENQGDEGDAGEGEN

Columns and labels:
Assay in all cases: FP
[1] = molecular target: T1, HPV35 E6 phospho-PBM peptide p35E6 (human papillomavirus type 35)
[2] = molecular target: T2, HPV33 E6 phospho-PBM peptide p33E6 (human papillomavirus type 33)
[3] = molecular target: T1, HPV35 E6 phospho-PBM peptide p35E6; remark: listed apart in the source
[4] = molecular target: T2, HPV33 E6 phospho-PBM peptide p33E6; remark: listed apart in the source
[5] = molecular target: B2
[6] = molecular target: T3, full-length human 14-3-3γ fused to the C terminus of MBP (human, UniProt P61981 1-247)
T3 chain: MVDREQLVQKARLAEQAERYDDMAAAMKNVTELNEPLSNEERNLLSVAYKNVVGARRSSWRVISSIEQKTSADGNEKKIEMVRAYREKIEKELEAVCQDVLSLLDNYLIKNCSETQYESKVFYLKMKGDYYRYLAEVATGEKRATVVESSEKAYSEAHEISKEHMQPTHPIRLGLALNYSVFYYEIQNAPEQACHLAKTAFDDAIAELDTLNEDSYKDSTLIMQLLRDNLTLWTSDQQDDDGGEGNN

[7] = molecular target: B3
[8] = molecular target: B8
[9] = molecular target: B4
[10] = molecular target: T4, full-length human 14-3-3ζ fused to the C terminus of MBP (human, UniProt P63104 1-245)
T4 chain: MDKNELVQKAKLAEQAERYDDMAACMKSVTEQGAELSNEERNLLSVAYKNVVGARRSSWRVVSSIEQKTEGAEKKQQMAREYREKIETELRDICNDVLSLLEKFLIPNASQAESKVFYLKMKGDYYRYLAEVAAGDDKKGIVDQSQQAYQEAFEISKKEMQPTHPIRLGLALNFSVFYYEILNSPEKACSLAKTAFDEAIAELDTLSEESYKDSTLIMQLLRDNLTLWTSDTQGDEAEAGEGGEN

[11] = molecular target: B6
[12] = molecular target: B2
[13] = molecular target: T3, full-length human 14-3-3γ fused to the …
[14] = molecular target: B3
[15] = molecular target: B8
[16] = molecular target: B4
[17] = molecular target: T4, full-length human 14-3-3ζ fused to the …
[18] = molecular target: B6

B1: unfused 14-3-3τ devoid of the flexible C-terminal tail (domain or fragment)
chain: MEKTELIQKAKLAEQAERYDDMATCMKAVTEQGAELSNEERNLLSVAYKNVVGGRRSAWRVISSIEQKTDTSDKKLQLIKDYREKVESELRSICTTVLELLDKYLIANATNPESKVFYLKMKGDYFRYLAEVACGDDRKQTIDNSQGAYQEAFDISKKEMQPTHPIRLGLALNFSVFYYEILNNPELACTLAKTAFDEAIAELDTLNEDSYKDSTLIMQLLRDNLTLWT
- Kd [1]: 363000 nM
- Kd [2]: 5150 nM

Binder: B2
- Kd [3]: 233000 nM
- Kd [4]: 3500 nM
- Kd [1]: 233000 nM
- Kd [2]: 3520 nM

Binder: B3
- Kd [3]: 163000 nM
- Kd [4]: 2000 nM
- Kd [1]: 163000 nM
- Kd [2]: 1980 nM

Binder: B4
- Kd [3]: > 300000 nM
- Kd [4]: 10300 nM

B5: unfused 14-3-3ε devoid of the flexible C-terminal tail (domain or fragment)
chain: MDDREDLVYQAKLAEQAERYDEMVESMKKVAGMDVELTVEERNLLSVAYKNVIGARRASWRIISSIEQKEENKGGEDKLKMIREYRQMVETELKLICCDILDVLDKHLIPAANTGESKVFYYKMKGDYHRYLAEFATGNDRKEAAENSLVAYKAASDIAMTELPPTHPIRLGLALNFSVFYYEILNSPDRACRLAKAAFDDAIAELDTLSEESYKDSTLIMQLLRDNLTLWTS
- Kd [1]: > 300000 nM
- Kd [2]: 7940 nM

Binder: B6
- Kd [3]: > 300000 nM
- Kd [4]: 6800 nM
- Kd [2]: 6770 nM

Binder: {Biotin-ttds}-RRVRKLPST[pT]L [RSK1 phospho-PBM peptide RSK1_-1P]
- Kd [5]: 800 nM
- Kd [6]: 300 nM
- Kd [7]: 500 nM
- Kd [8]: 700 nM
- Kd [9]: 1600 nM
- Kd [10]: 1000 nM
- Kd [11]: 1700 nM
- Kd [12]: 780 nM
- Kd [13]: 310 nM
- Kd [14]: 460 nM
- Kd [15]: 740 nM
- Kd [16]: 1580 nM
- Kd [17]: 960 nM
- Kd [18]: 1710 nM

B7: unfused 14-3-3β devoid of the flexible C-terminal tail (domain or fragment)
chain: MTMDKSELVQKAKLAEQAERYDDMAAAMKAVTEQGHELSNEERNLLSVAYKNVVGARRSSWRVISSIEQKTERNEKKQQMGKEYREKIEAELQDICNDVLELLDKYLIPNATQPESKVFYLKMKGDYFRYLSEVASGDNKQTTVSNSQQAYQEAFEISKKEMQPTHPIRLGLALNFSVFYYEILNSPEKACSLAKTAFDEAIAELDTLNEESYKDSTLIMQLLRDNLTLWT
- Kd [1]: > 400000 nM
- Kd [2]: 6920 nM

Binder: B8
- Kd [3]: > 300000 nM
- Kd [4]: 4100 nM
- Kd [2]: 4050 nM

Binder: {Biotin-ttds}-RRVRKLPS[pT]TL [RSK1 phospho-PBM peptide RSK1_-2P]
- Kd [5]: 500 nM
- Kd [6]: 200 nM
- Kd [7]: 700 nM
- Kd [8]: 1000 nM
- Kd [9]: 1200 nM
- Kd [10]: 1500 nM
- Kd [11]: 3600 nM
- Kd [12]: 450 nM
- Kd [14]: 660 nM
- Kd [15]: 960 nM
- Kd [16]: 1220 nM
- Kd [17]: 1540 nM
- Kd [18]: 3570 nM
